# B1: Thioredoxin (Homo sapiens), P10599 (parent)
# chain: MVKQIESKTAFQEALDAAGDKLVVVDFSATWCGPCKMIKPFFHSLSEKYSNVIFLEVDVDDCQDVASECEVKCMPTFQFFKKGQKVGEFSGANKEKLEATINELV
# partner: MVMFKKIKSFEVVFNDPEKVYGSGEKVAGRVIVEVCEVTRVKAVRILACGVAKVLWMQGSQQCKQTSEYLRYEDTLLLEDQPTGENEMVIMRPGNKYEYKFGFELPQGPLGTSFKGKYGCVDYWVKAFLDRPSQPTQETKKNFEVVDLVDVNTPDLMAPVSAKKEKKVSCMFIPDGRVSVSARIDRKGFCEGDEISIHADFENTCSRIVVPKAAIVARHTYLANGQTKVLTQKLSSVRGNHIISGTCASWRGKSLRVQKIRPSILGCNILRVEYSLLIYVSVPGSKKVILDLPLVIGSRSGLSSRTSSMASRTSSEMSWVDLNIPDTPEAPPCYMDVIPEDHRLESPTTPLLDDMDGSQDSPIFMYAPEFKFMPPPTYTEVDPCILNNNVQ
# Variants of: B1
# Settings: with txnip_human TXNIP
row,Variant,effect of a mutation on the interaction
1,C32S;C35S,decreasing interaction

# Source: IntAct's records for PubMed 10814541
